Source: patent publication US20080226630A1

B1: antibody 894 (clone 894) (antibody, human IgG1, kappa, V domains shown)
VH: QVQLVESGGGVVQPGKSLRLSCAASGFRFSDYGMHWVRQAPSKGLEWVAVIWHDGSNIRYADSVRGRFSISRDNSKNTLYLQMNSMRADDTAFYYCARVPFQIWSGLYFDHWGQGTLVTVSS
VL: EIVMTQSPATLSVSPGERATLSCRASQSVGNNLAWYQQRPGQAPRLLIYGASTRATGIPARFSGSGSGTEFTLTISSLQSEDFAVYYCQQYDKWPETFGQGTKVDIKR
B2: antibody 818 (clone 818) (antibody, human IgG1, kappa, V domains shown)
VH: QVTLRESGPAVVKPTETLTLTCAFSGFSLNAGRVGVSWIRQPPGQAPEWLARIDWDDDKAFRTSLKTRLSISKDSSKNQVVLTLSNMDPADTATYYCARTQVFASGGYYLYYLDHWGQGTLVTVSS
VL: DIQMTQSPSSLSASVGDRVTITCRASQTIASYVNWYQQKPGRAPSLLIYAASNLQSGVPPRFSGSGSGTDFTLTISGLQPDDFATYYCQQSYSYRALTFGGGTKVEIKR
B3: antibody 827 (clone 827) (antibody, human IgG1, kappa, V domains shown)
VH: QVQLVQSGAEVKKPGASVKVSCRVSGHTFTALSKHWMRQGPGGGLEWMGFFDPEDGDTGYAQKFQGRVTMTEDTATGTAYMELSSLTSDDTAVYYCATVAAAGNFDNWGQGTLVTVSS
VL: DIQMTQSPSSLAASVGDRVTITCRASQFISSYLHWYQQRPGKAPKLLMYAASTLQSGVPSRFSGSGSGTDFTLTISSLQPEDFATYYCQQSYTNPYTFGQGTKLEIKR
B4: antibody 880 (clone 880) (antibody, human IgG1, kappa, V domains shown)
VH: QITLKESGPTLVRPTQTLTLTCTFSGFSLSTSKLGVGWIRQPPGKALEWLALVDWDDDRRYRPSLKSRLTVTKDTSKNQVVLTMTNMDPVDTATYYCAHSAYYTSSGYYLQYFHHWGPGTLVTVSS
VL: DIQMTQSPSSLAASVGDRVTITCRASQTIASYVNWYQQKPGKAPNLLIYAASSLQSGVPSRFSGSGSGTDFTLTISSLQPEDFASYFCQQSYSFPYTFGQGTKLDIKR
B5: antibody 831 (clone 831) (antibody, human IgG1, kappa, V domains shown)
VH: QVQLVQSGAEVKKPGASVKVSCKASANIFTYAMHWVRQAPGQRLEWMGWINVGNGQTKYSQRFQGRVTITRDTSATTAYMELSTLRSEDTAVYYCARRASQYGEVYGNYFDYWGQGTLVTVSS
VL: DIQMTQSPSTLSASVGDRLTITCRASQNIYNWLAWYQQKPGKAPKLLIYDASTLESGVPSRFSGSGSGTEFTLTISSLQPDDFATYYCQQYNSLSPTFGQGTKVEIKR
B6: antibody 800 (clone 800) (antibody, human IgG1, kappa, V domains shown)
VH: QVQLVESGGAVVQPGRSLRLSCEVSGFSFSDYGMNWVRQGPGKGLEWVAVIWHDGSNKNYLDSVKGRFTVSRDNSKNTLFLQMNSLRAEDTAVYYCARTPYEFWSGYYFDFWGQGTLVTVSS
VL: AIQLTQSPSSLSASVGDRVTLTCRASQGITDSLAWYQQKPGKAPKVLLYAASRLESGVPSRFSGRGSGTDFTLTISSLQPEDFATYYCQQYSKSPATFGPGTKVEIRR

Assays:
Assay in all cases: cell-based or functional assay
[1] = substrate: F protein of RSV strain Long (human respiratory syncytial virus strain Long (subtype A)) (UniProt P12568)
Chain of F protein of RSV strain Long (human respiratory syncytial virus strain Long (subtype A)) (P12568 26-574): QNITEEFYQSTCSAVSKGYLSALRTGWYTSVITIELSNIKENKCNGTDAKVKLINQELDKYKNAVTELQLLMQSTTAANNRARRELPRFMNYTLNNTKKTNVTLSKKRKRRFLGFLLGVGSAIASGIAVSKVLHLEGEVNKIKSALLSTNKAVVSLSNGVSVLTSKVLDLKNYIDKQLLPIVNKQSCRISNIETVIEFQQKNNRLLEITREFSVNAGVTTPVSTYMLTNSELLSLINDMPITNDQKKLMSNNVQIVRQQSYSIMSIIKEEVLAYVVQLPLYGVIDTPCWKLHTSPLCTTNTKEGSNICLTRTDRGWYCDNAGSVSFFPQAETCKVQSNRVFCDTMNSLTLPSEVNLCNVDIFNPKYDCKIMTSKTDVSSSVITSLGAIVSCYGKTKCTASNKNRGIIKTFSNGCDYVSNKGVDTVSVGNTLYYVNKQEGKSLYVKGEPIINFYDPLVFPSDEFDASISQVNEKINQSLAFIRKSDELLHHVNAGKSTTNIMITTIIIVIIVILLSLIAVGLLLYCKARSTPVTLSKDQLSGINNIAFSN

[2] = substrate: F protein of RSV strain 18537 (human respiratory syncytial virus strain 18537 (subtype B)) (UniProt P13843)
Chain of F protein of RSV strain 18537 (human respiratory syncytial virus strain 18537 (subtype B)) (P13843 26-574): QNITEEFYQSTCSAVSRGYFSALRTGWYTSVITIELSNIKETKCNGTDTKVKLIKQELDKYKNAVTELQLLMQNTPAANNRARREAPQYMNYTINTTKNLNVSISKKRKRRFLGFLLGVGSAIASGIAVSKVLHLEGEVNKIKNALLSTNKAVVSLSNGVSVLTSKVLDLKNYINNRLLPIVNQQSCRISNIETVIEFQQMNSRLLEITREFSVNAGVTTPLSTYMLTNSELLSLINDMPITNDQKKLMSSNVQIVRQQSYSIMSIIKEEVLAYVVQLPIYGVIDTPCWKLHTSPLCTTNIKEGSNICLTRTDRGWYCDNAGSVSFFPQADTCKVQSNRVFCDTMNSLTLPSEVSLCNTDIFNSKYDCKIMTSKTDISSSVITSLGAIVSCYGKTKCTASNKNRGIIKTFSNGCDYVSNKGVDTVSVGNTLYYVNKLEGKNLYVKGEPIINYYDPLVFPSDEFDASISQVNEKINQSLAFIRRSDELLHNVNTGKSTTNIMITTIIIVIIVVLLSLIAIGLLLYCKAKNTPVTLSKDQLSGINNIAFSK

[3] = substrate: F protein of RSV strain B1 (human respiratory syncytial virus strain B1 (subtype B)) (UniProt O36634)
Chain of F protein of RSV strain B1 (human respiratory syncytial virus strain B1 (subtype B)) (O36634 26-574): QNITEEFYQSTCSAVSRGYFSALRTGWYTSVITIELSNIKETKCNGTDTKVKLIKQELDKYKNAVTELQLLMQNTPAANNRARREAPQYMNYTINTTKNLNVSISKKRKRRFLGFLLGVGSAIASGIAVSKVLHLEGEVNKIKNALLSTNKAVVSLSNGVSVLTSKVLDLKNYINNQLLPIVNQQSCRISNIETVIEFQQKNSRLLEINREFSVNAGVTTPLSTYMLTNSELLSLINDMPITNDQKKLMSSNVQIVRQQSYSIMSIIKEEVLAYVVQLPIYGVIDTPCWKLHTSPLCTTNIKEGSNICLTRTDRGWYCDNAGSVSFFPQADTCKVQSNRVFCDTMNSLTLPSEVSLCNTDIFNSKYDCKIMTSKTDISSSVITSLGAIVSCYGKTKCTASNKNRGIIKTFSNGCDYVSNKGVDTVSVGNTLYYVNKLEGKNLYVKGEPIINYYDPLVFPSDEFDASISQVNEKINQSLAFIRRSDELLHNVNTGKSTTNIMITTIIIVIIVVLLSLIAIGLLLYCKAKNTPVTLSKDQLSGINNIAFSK

Row | Binder | EC50, PRNT with complement, RSV Long [1] [µg/mL] | EC50, PRNT with complement, RSV 18537 [2] [µg/mL] | EC50, PRNT with complement, RSV Long (new determination) [1] [µg/mL] | EC50, PRNT with complement, RSV B1 [3] [µg/mL]
1 | B1 | 0.08 | 0.07 |  | 
2 | B2 | 1.86 | 0.21 | 0.15 | 
3 | B3 | 0.16 | 0.1 |  | 
4 | B4 | 0.38 | 0.95 |  | 0.4
5 | B5 | 0.08 | 0.72 |  | 1.66
6 | B6 | 0.15 |  |  | 0.16
